Experimental data: patent US20240132485A1, “HETEROCYCLIC CULLIN RING UBIQUITIN LIGASE COMPOUNDS AND USES THEREOF” (CEMM - FORSCHUNGSZENTRUM FÜR MOLEKULARE MEDIZIN GMBH, priority 2020, published 2024)
pEC50: −log10 of the molar value.

Experiments:
[1] = target: Nanoluc_DDB1 (N-terminal Nanoluc luciferase, G4S linker, DDB1 (FL)) (UniProt Q16531); test: NanoBRET in HEK293T cells, 10 µM compound Example 3-51; class B = 3-4 fold increase
[2] = target: Nanoluc_DDB1 (N-terminal Nanoluc luciferase, G4S linker, DDB1 (FL)) (UniProt Q16531); test: NanoBRET in HEK293T cells, 10 µM compound Example 3-17; class A = greater than 4-fold increase
[3] = target: Nanoluc_DDB1 (N-terminal Nanoluc luciferase, G4S linker, DDB1 (FL)) (UniProt Q16531); test: NanoBRET in HEK293T cells, 10 µM compound Example 3-49; class B = 3-4 fold increase
[4] = target: Nanoluc_DDB1 (N-terminal Nanoluc luciferase, G4S linker, DDB1 (FL)) (UniProt Q16531); test: NanoBRET in HEK293T cells, 10 µM compound Example 3-3; class D = 1-2 fold increase
[5] = target: Nanoluc_DDB1 (N-terminal Nanoluc luciferase, G4S linker, DDB1 (FL)) (UniProt Q16531); test: NanoBRET in HEK293T cells, 10-point titration of compound Example 3-53; class E = >10 µM
[6] = target: Nanoluc_DDB1 (N-terminal Nanoluc luciferase, G4S linker, DDB1 (FL)) (UniProt Q16531); test: NanoBRET in HEK293T cells, 10 µM compound Example 3-50; class A = greater than 4-fold increase
[7] = target: Nanoluc_DDB1 (N-terminal Nanoluc luciferase, G4S linker, DDB1 (FL)) (UniProt Q16531); test: NanoBRET in HEK293T cells, 10 µM compound Example 3-8; class A = greater than 4-fold increase
[8] = target: Nanoluc_DDB1 (N-terminal Nanoluc luciferase, G4S linker, DDB1 (FL)) (UniProt Q16531); test: NanoBRET in HEK293T cells, 10-point titration of compound Example 3-4; class A = EC50<=0.25 µM
[9] = target: Nanoluc_DDB1 (N-terminal Nanoluc luciferase, G4S linker, DDB1 (FL)) (UniProt Q16531); test: NanoBRET in HEK293T cells, 10 µM compound Example 3-60; class C = 2-3 fold increase
[10] = target: Nanoluc_DDB1 (N-terminal Nanoluc luciferase, G4S linker, DDB1 (FL)) (UniProt Q16531); test: NanoBRET in HEK293T cells, 10 µM compound Example 3-29; class B = 3-4 fold increase
[11] = target: Nanoluc_DDB1 (N-terminal Nanoluc luciferase, G4S linker, DDB1 (FL)) (UniProt Q16531); test: NanoBRET in HEK293T cells, 10 µM compound Example 3-12; class D = 1-2 fold increase
[12] = target: Nanoluc_DDB1 (N-terminal Nanoluc luciferase, G4S linker, DDB1 (FL)) (UniProt Q16531); test: NanoBRET in HEK293T cells, 10 µM compound Example 3-7; class B = 3-4 fold increase
[13] = target: Nanoluc_DDB1 (N-terminal Nanoluc luciferase, G4S linker, DDB1 (FL)) (UniProt Q16531); test: NanoBRET in HEK293T cells, 10 µM compound Example 3-37; class C = 2-3 fold increase
[14] = target: Nanoluc_DDB1 (N-terminal Nanoluc luciferase, G4S linker, DDB1 (FL)) (UniProt Q16531); test: NanoBRET in HEK293T cells, 10-point titration of compound Example 3-59; class E = >10 µM
[15] = target: Nanoluc_DDB1 (N-terminal Nanoluc luciferase, G4S linker, DDB1 (FL)) (UniProt Q16531); test: NanoBRET in HEK293T cells, 10-point titration of compound Example 3-52; class A = EC50<=0.25 µM
[16] = target: Nanoluc_DDB1 (N-terminal Nanoluc luciferase, G4S linker, DDB1 (FL)) (UniProt Q16531); test: NanoBRET in HEK293T cells, 10 µM compound Example 3-24; class B = 3-4 fold increase
[17] = target: Nanoluc_DDB1 (N-terminal Nanoluc luciferase, G4S linker, DDB1 (FL)) (UniProt Q16531); test: NanoBRET in HEK293T cells, 10 µM compound Example 3-34; class C = 2-3 fold increase
[18] = target: Nanoluc_DDB1 (N-terminal Nanoluc luciferase, G4S linker, DDB1 (FL)) (UniProt Q16531); test: NanoBRET in HEK293T cells, 10 µM compound Example 3-11; class A = greater than 4-fold increase
[19] = target: Nanoluc_DDB1 (N-terminal Nanoluc luciferase, G4S linker, DDB1 (FL)) (UniProt Q16531); test: NanoBRET in HEK293T cells, 10 µM compound Example 3-28; class B = 3-4 fold increase
[20] = target: Nanoluc_DDB1 (N-terminal Nanoluc luciferase, G4S linker, DDB1 (FL)) (UniProt Q16531); test: NanoBRET in HEK293T cells, 10 µM compound Example 3-52; class A = greater than 4-fold increase
[21] = target: Nanoluc_DDB1 (N-terminal Nanoluc luciferase, G4S linker, DDB1 (FL)) (UniProt Q16531); test: NanoBRET in HEK293T cells, 10 µM compound Example 3-36; class C = 2-3 fold increase
[22] = target: Nanoluc_DDB1 (N-terminal Nanoluc luciferase, G4S linker, DDB1 (FL)) (UniProt Q16531); test: NanoBRET in HEK293T cells, 10 µM compound Example 3-56; class C = 2-3 fold increase
[23] = target: Nanoluc_DDB1 (N-terminal Nanoluc luciferase, G4S linker, DDB1 (FL)) (UniProt Q16531); test: NanoBRET in HEK293T cells, 10 µM compound Example 3-65; class B = 3-4 fold increase
[24] = target: Nanoluc_DDB1 (N-terminal Nanoluc luciferase, G4S linker, DDB1 (FL)) (UniProt Q16531); test: NanoBRET in HEK293T cells, 10 µM compound Example 3-58; class C = 2-3 fold increase
[25] = target: Nanoluc_DDB1 (N-terminal Nanoluc luciferase, G4S linker, DDB1 (FL)) (UniProt Q16531); test: NanoBRET in HEK293T cells, 10 µM compound Example 3-15; class D = 1-2 fold increase
[26] = target: Nanoluc_DDB1 (N-terminal Nanoluc luciferase, G4S linker, DDB1 (FL)) (UniProt Q16531); test: NanoBRET in HEK293T cells, 10 µM compound Example 3-62; class A = greater than 4-fold increase

Sequence of Nanoluc_DDB1 (N-terminal Nanoluc luciferase, G4S linker, DDB1 (FL)) (Q16531 other isoform, or with tags, fused parts or gaps): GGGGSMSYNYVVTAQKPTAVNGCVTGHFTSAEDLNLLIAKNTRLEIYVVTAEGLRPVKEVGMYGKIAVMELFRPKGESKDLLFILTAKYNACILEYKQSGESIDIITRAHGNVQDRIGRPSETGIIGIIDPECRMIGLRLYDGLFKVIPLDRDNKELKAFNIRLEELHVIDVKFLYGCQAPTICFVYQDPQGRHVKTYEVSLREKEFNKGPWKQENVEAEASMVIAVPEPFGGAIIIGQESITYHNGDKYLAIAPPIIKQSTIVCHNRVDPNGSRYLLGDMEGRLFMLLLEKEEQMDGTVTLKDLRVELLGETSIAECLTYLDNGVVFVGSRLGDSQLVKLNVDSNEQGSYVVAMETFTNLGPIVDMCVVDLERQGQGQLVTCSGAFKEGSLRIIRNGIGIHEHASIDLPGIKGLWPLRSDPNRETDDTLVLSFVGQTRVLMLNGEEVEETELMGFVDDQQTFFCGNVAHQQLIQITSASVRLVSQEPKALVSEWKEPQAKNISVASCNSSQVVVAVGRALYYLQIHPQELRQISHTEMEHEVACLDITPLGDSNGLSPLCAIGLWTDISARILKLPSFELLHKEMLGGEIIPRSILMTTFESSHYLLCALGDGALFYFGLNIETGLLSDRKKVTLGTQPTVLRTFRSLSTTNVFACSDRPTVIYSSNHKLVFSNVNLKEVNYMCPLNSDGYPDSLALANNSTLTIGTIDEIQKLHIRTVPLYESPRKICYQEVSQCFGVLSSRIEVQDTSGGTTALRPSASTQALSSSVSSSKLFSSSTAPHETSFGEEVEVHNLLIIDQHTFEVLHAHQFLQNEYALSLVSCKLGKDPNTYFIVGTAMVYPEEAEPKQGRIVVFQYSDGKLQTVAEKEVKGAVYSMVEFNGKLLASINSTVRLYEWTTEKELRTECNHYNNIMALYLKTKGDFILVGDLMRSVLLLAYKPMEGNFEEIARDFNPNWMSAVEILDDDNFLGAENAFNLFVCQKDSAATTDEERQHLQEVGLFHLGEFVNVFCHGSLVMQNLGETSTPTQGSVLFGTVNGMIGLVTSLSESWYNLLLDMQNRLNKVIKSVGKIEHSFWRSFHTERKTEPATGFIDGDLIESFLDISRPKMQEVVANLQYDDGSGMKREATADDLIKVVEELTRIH

**Q.** With “HaloTag_CDK12 (N-terminal HaloTag, G4S linker, CDK12 (713-1052)) (from UniProt Q9NYV4 713-1052) (enzyme)” as the substance, how does the NanoBRET fold increase [1] read?
**A.** 3 to 4 fold

**Q.** What about the NanoBRET fold increase [2] of the same substance?
**A.** > 4 fold

**Q.** What about the NanoBRET fold increase [3] of the same substance?
**A.** 3 to 4 fold

**Q.** What about the NanoBRET fold increase [4] of the same substance?
**A.** 1 to 2 fold

**Q.** What about the pEC50 [5] of the same substance?
**A.** < 5.00

**Q.** And the NanoBRET fold increase [6]?
**A.** > 4 fold

**Q.** And the NanoBRET fold increase [7]?
**A.** > 4 fold

**Q.** And the pEC50 [8]?
**A.** > 6.60

**Q.** What about the NanoBRET fold increase [9] of the same substance?
**A.** 2 to 3 fold

**Q.** And the NanoBRET fold increase [10]?
**A.** 3 to 4 fold

**Q.** What about the NanoBRET fold increase [11] of the same substance?
**A.** 1 to 2 fold

**Q.** What about the NanoBRET fold increase [12] of the same substance?
**A.** 3 to 4 fold

**Q.** What about the NanoBRET fold increase [13] of the same substance?
**A.** 2 to 3 fold

**Q.** And the pEC50 [14]?
**A.** < 5.00

**Q.** What about the pEC50 [15] of the same substance?
**A.** > 6.60

**Q.** And the NanoBRET fold increase [16]?
**A.** 3 to 4 fold

**Q.** And the NanoBRET fold increase [17]?
**A.** 2 to 3 fold

**Q.** What about the NanoBRET fold increase [18] of the same substance?
**A.** > 4 fold

**Q.** What about the NanoBRET fold increase [19] of the same substance?
**A.** 3 to 4 fold

**Q.** What about the NanoBRET fold increase [20] of the same substance?
**A.** > 4 fold

**Q.** And the NanoBRET fold increase [21]?
**A.** 2 to 3 fold

**Q.** What about the NanoBRET fold increase [22] of the same substance?
**A.** 2 to 3 fold

**Q.** What about the NanoBRET fold increase [23] of the same substance?
**A.** 3 to 4 fold

**Q.** What about the NanoBRET fold increase [24] of the same substance?
**A.** 2 to 3 fold

**Q.** What about the NanoBRET fold increase [25] of the same substance?
**A.** 1 to 2 fold

**Q.** And the NanoBRET fold increase [26]?
**A.** > 4 fold
